Data taken from patent US20210369812A1, “OSTEOINDUCTIVE PEPTIDES, COMPOSITIONS, IMPLANTS, AND METHODS OF USE” (The Board of Regents of the University of Oklahoma, priority 2018, published 2021).
“Also recorded” adds a separate entry of the source.

Tests used:
BMPR2 [1] = biological target: T1, BMPR2 (Homo sapiens, UniProt Q13873); assay: Biopanning of Ph.D.-12 phage library on immobilized BMPR2-Fc; assay type: binding; conditions: peptide displayed on p3 of M13 phage; 3 rounds of panning
T1 construct: purchased G&P Biosciences
T1 sequence (Q13873 27-150 limits assumed): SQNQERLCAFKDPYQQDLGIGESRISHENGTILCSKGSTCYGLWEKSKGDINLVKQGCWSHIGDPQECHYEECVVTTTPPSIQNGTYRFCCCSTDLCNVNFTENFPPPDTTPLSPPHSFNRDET
Protocol: (§1) The Ph.D.™-12 phage library was diluted in tris-buffered saline mixed with Tween-20 (TBS+0.1% v/v Tween-20 and abbreviated TBST) for a final concentration of 2×10^11 phage in 1 mL of TBST. The diluted library was then pipetted onto one of the wells of a 12-well poly-L-lysine plate followed by rocking the plate gently for 60 minutes at room temperature. […] This supernatant served as the starting phage library for subsequent binding selections. The phages which stuck to the plate were discarded.
(§2) This procedure is only applicable if the charge of the desired protein to be immobilized is negative, determined by checking the pI value of the protein. […]. This procedure was written for 12-well plates coated in poly-L-lysine (positively charged). Separate solutions of BMPR1A-Fc and BMPR2-Fc were prepared at 80 μg/ml in Tris-buffered saline (pH 7.5). In separate wells and on separate poly-L-lysine coated 12-well plates, 0.3 ml of each solution of receptor was added. The solutions of BMPR1A-Fc and BMPR2-Fc were swirled around the plate surface until the entire surface was wet. The plates were then incubated overnight at 4° C. with gentle agitation in a humidified container (a sealed plastic box with damp paper towels). Each individual receptor was now immobilized.
(§3) The following selection procedure is based off of the direct coating procedure outlined in the Ph.D.™-12 Phage Display Libraries instructional manual (New England Biolabs) with some alterations. This procedure was carried out after immobilizing the targets BMPR1A-Fc and BMPR2-Fc in a 12-well poly-L-lysine coated plate. A stock solution of tetracycline was prepared (20 mg/ml in 1:1 ethanol:water). The coating solution containing the target receptors was poured off followed by firmly slapping the plates face down on a clean paper towel. Each well was then filled with blocking buffer (0.1 M NaHCO3 (pH 8.6), 5 mg/mL BSA, 0.02% NaN3. Filter sterilize, store at 4° C.) and incubated for 1 hour at 4° C. The blocking solution was then poured off followed by firmly slapping the plates down against a clean paper towel. Each plate was washed rapidly 6 times with Tris-buffered saline mixed with Tween-20 (TBS+0.1% v/v Tween-20). The plate was slapped against a clean paper towel each time. 1 ml of the phage library created from the negative selection process was then pipetted onto each of the target coated wells. The plates were then rocked gently at room temperature for 60 min. The non-binding phages were then discarded by pouring off the supernatant and slapping the plate face-down on a clean paper towel. The plate was then washed 10 times with TBST followed by slapping the plate face-down on a clean paper towel each time (a clean section of paper towel was used each time to prevent cross-contamination). The bound phages were then eluted by incubating with a nonspecific disruption buffer (0.2 M Glycine-HCl (pH 2.2), 1 mg/ml bovine serum albumin (BSA) for 15 minutes. The eluate (immersed in the disruption buffer) was then pipetted into a microcentrifuge tube followed by neutralization with 150 μl of 1 M Tris-HCl (pH 9.1). A small portion (˜1 μl) of this eluate could be titered and sequenced if desired. The rest of the eluate was amplified (see amplification of phage library section). Once amplified, the eluate was also titered. Determine the concentration of amplified phages by counting the blue plaques in titering as described. Dilute the amplified library to contain 2×10^11 phages in 1 mL of TBS (as little as 10^9 plaque forming units per ml can be used if there is not enough). A second poly-L-lysine 12-well plate was then coated with the target receptors to allow for a second round of biopanning carried out using the same steps except that the Tween-20 concentration in the wash steps was raised to 0.5% (v/v). The eluate from the second round was then amplified, titered and used in an additional 3rd round of panning on newly receptor coated plates. […]

BMPR1A [2] = biological target: T2, BMPR1A (Homo sapiens, UniProt P36894); assay: Biopanning of Ph.D.-12 phage library on immobilized BMPR1A-Fc; assay type: binding; conditions: peptide displayed on p3 of M13 phage; 3 rounds of panning
T2 construct: purchased G&P Biosciences
T2 sequence (P36894 24-152 limits assumed): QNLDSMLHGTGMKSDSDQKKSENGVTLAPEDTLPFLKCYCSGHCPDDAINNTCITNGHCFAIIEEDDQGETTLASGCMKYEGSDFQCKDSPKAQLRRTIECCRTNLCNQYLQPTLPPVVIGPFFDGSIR
Protocol: as §1, §2, §3

BMPR2 [3] = biological target: T1, BMPR2; assay: Enzyme-linked immune sorbent assay for receptor binding (BMPR2); conditions: peptide on p3 of M13 phage; absorbance 450 nm; n=4; vs wild type phage
Text: (§4) Groups having the same lowercase letter assigned (above the bar) were not statistically different from each other. Groups having different letters assigned (above the bar) were statistically different from each other. […] The primary antibody was mouse anti-g3p (p8) IgG. The secondary antibody was anti-mouse IgG conjugated with horseradish peroxidase. The substrate, 3,3′,5,5′-Tetramethylbenzidine was detected at 450 nm after stopping the reaction with 1 M HCl.
(§5) Blocking buffer (0.1 M NaHCO3 (pH 8.6), 5 mg/ml BSA. Filter sterilized, stored at 4° C.) was prepared. TBS (50 mM Tris-HCl (pH 7.5), 150 mM NaCl, autoclaved, stored at room temperature) was prepared. Separate solutions of the target receptors were then made. For BMPR1A, a 10 μg/ml stock solution was made. For BMPR2, a 10 μg/ml solution was also made. Separate wells with n=4 for each different peptide bearing phage group were then coated with one of the receptors. […] After a brief pilot test, it should be noted that using 10^10 phage/ml was determined to work best, but other concentrations of virus also worked consistently. […] Then, […] of freshly prepared 3,3′,5,5′-Tetramethylbenzidine (TMB) was added to each well and the absorbance at 370 nm and 652 nm was monitored for 1 hour using an ELISA plate reader. […] The absorbance at 450 nm for each well was then measured.

[4] = test system: human mesenchymal stem cells (hMSCs); assay: Live cell binding through immunofluorescence; assay type: cell-based; conditions: 10^12 phages/ml
Protocol: Human mesenchymal stem cells (hMSCs) were grown to roughly 60% plate coverage in a 48-well tissue culture plate according to the company Lonza's culturing protocols. […] The hMSCs were then blocked with 0.5% BSA (dissolved in cell media) for 1 hour. The cell media for the hMSCs was then replaced with 1 ml of new cell media having of concentration of 10^12 phages/ml. Next, the plates were washed once with 400 μl of phosphate buffered saline (PBS) at a pH of 7.4. The hMSCs were then incubated with Anti-M13 Bacteriophage Coat Protein g8p antibody [RL-ph2] (ab9225) at a 1:1000 dilution in cell media (200 μl per well). The wells were then washed again with PBS (400 μl per wash). Next, the hMSCs were incubated with the secondary antibody, Goat-anti mouse AF-488 (Abcam) for 1 hour (1 ug/ml final concentration of antibody in media). The wells were then washed again with PBS (400 μl per wash). A Hoechst nuclear stain was used to stain the nuclei (PureBlu™ Hoechst 33342 Nuclear Staining Dye #1351304 from BioRad) according to the company's protocol. Cell Mask™ Orange Plasma Membrane Stain was used to stain membranes (CellMask™ Orange Plasma Membrane Stain Catalog number: C10045 from Thermo Fisher Scientific) according to the company's protocol. The phages binding to the cells were then imaged on a Nikon Eclipse Ti fluorescent microscope.

BMPR1A [5] = biological target: T2, BMPR1A; assay: Enzyme-linked immune sorbent assay for receptor binding (BMPR1A); conditions: peptide on p3 of M13 phage; absorbance 450 nm; n=4; vs wild type phage
Text: as §4
as §5, with “receptors. The coating was done by adding 100 μl of the target solution to wells of a 96-well plate followed by swirling until the surface was completely wet. The plates were then allowed to incubate overnight at 4° C. with gentle agitation in a humidified container (a plastic box lined with damp paper towels). Any excess target solution was then removed, and the plate was slapped face-down on a clean paper towel. The wells of the plate were then blocked with 200 μl of blocking buffer for 1 hour at room temperature. […] The blocking buffer was then removed from each plate followed by 5 washes with 200 μl of TBST. Each time the plate was slapped against a clean section of paper towel face-down.” for “receptors.”

## NAKYPTMRPGPL (Completely synthesized in the lab - Ph.D.-12 Phage Display Peptide Library Kit (New England Biolabs))
BMPR2 [1]
  Binding to BMPR2 found by biopanning (frequency among sequenced plaques): discovered to bind
BMPR1A [2]
  Binding to BMPR1A found by biopanning (frequency among sequenced plaques): discovered to bind

## TAKSLPMRPGPL (Completely synthesized in the lab - Ph.D.-12 Phage Display Peptide Library Kit (New England Biolabs))
BMPR2 [1]
  Binding to BMPR2 found by biopanning (frequency among sequenced plaques): discovered to bind
BMPR1A [2]
  Binding to BMPR1A found by biopanning (frequency among sequenced plaques): discovered to bind

## RDYHPRDHTATW (Completely synthesized in the lab - Ph.D.-12 Phage Display Peptide Library Kit (New England Biolabs))
BMPR2 [3]
  Relative binding strength in ELISA to BMPR2: statistically significant binders
BMPR2 [1]
  Binding to BMPR2 found by biopanning (frequency among sequenced plaques): most frequent peptide; also recorded: discovered to bind
BMPR1A [2]
  Binding to BMPR1A found by biopanning (frequency among sequenced plaques): discovered to bind
[4]
  Binding of peptide-bearing phages to live hMSCs: bound to what appeared to be the same location as the outer membrane; also recorded: demonstrated an ability to bind to the outer membrane

## TAKYLPMRPGPL (Completely synthesized in the lab - Ph.D.-12 Phage Display Peptide Library Kit (New England Biolabs))
BMPR2 [1]
  Binding to BMPR2 found by biopanning (frequency among sequenced plaques): discovered to bind
BMPR1A [5]
  Relative binding strength in ELISA to BMPR1A: best binders
BMPR1A [2]
  Binding to BMPR1A found by biopanning (frequency among sequenced plaques): most frequently obtained peptide; also recorded: discovered to bind

## NAKYPTMRPGPK (Completely synthesized in the lab - Ph.D.-12 Phage Display Peptide Library Kit (New England Biolabs))
BMPR2 [1]
  Binding to BMPR2 found by biopanning (frequency among sequenced plaques): discovered to bind
BMPR1A [2]
  Binding to BMPR1A found by biopanning (frequency among sequenced plaques): discovered to bind

## TSKYLTMRPGPK (Completely synthesized in the lab - Ph.D.-12 Phage Display Peptide Library Kit (New England Biolabs))
BMPR2 [1]
  Binding to BMPR2 found by biopanning (frequency among sequenced plaques): discovered to bind
BMPR1A [2]
  Binding to BMPR1A found by biopanning (frequency among sequenced plaques): discovered to bind

## GNNPLHVHHDKR (Completely synthesized in the lab - Ph.D.-12 Phage Display Peptide Library Kit (New England Biolabs))
BMPR2 [1]
  Binding to BMPR2 found by biopanning (frequency among sequenced plaques): discovered to bind
BMPR1A [2]
  Binding to BMPR1A found by biopanning (frequency among sequenced plaques): discovered to bind

## DYHDPSLPTLRK (Completely synthesized in the lab - Ph.D.-12 Phage Display Peptide Library Kit (New England Biolabs))
BMPR2 [1]
  Binding to BMPR2 found by biopanning (frequency among sequenced plaques): discovered to bind
BMPR1A [2]
  Binding to BMPR1A found by biopanning (frequency among sequenced plaques): discovered to bind
